Data published in patent publication US20240092844.

System: KLF6-CDK200 RTF 8 phosphate-contact mutant 8 phosphate-contacting Arg to Gln (Homo sapiens)
Experiment: cell_activity
Settings: on-target activity reduced 12%; only CDKN1C upregulated in RNA-seq

“TTGAAACTGAAAATACTACATTATGCTA (double strand) [CDKN1C target 200]” gave a binding signal (% of unmodified CDK200) of 88.
